Measured values published in the Human Domainome abundance scans (Beltran et al. 2025).
± gives the uncertainty stated by the source.

B1: Endonuclease CUE2, residues 9 to 47; numbered along this chain, P36075 (parent)
chain: HESKLSILMDMFPAISKSKLQVHLLENNNDLDLTIGLLL

Variants of: B1
Test: abundance fitness (aPCA) (normalised: wild type 0, dead -1); higher = more abundant; growth selection in yeast, the domain comes from the species named
Settings: Saccharomyces cerevisiae (strain ATCC 204508 / S288c)
Variant HECKLSILMDMFPAISKSKLQVHLLENNNDLDLTIGLLL [S3C] has an abundance fitness of -0.146 ± 0.38.
HEKKLSILMDMFPAISKSKLQVHLLENNNDLDLTIGLLL [S3K] gave an abundance fitness of -0.094 ± 0.097.
Work on HEGKLSILMDMFPAISKSKLQVHLLENNNDLDLTIGLLL [S3G] yielded an abundance fitness of -0.145 ± 0.036.
With HEPKLSILMDMFPAISKSKLQVHLLENNNDLDLTIGLLL [S3P] the abundance fitness was -0.453 ± 0.12.
HEAKLSILMDMFPAISKSKLQVHLLENNNDLDLTIGLLL [S3A] gave an abundance fitness of -0.156 ± 0.04.
Work on HEWKLSILMDMFPAISKSKLQVHLLENNNDLDLTIGLLL [S3W] yielded an abundance fitness of -0.428 ± 0.054.
Work on HETKLSILMDMFPAISKSKLQVHLLENNNDLDLTIGLLL [S3T] yielded an abundance fitness of -0.344 ± 0.063.
With HEQKLSILMDMFPAISKSKLQVHLLENNNDLDLTIGLLL [S3Q] the abundance fitness was -0.057 ± 0.051.
With HEVKLSILMDMFPAISKSKLQVHLLENNNDLDLTIGLLL [S3V] the abundance fitness was -0.329 ± 0.047.
With HEHKLSILMDMFPAISKSKLQVHLLENNNDLDLTIGLLL [S3H] the abundance fitness was 0.014 ± 0.068.
Variant HELKLSILMDMFPAISKSKLQVHLLENNNDLDLTIGLLL [S3L] has an abundance fitness of -0.184 ± 0.048.
For HEMKLSILMDMFPAISKSKLQVHLLENNNDLDLTIGLLL [S3M], the abundance fitness was -0.042 ± 0.073.
Work on HERKLSILMDMFPAISKSKLQVHLLENNNDLDLTIGLLL [S3R] yielded an abundance fitness of -0.329 ± 0.04.
For HEEKLSILMDMFPAISKSKLQVHLLENNNDLDLTIGLLL [S3E], the abundance fitness was -0.106 ± 0.043.
In the case of LESKLSILMDMFPAISKSKLQVHLLENNNDLDLTIGLLL [H1L], the abundance fitness is reported as 0.377 ± 0.045.
With TESKLSILMDMFPAISKSKLQVHLLENNNDLDLTIGLLL [H1T] the abundance fitness was 0.467 ± 0.062.
Work on VESKLSILMDMFPAISKSKLQVHLLENNNDLDLTIGLLL [H1V] yielded an abundance fitness of 0.28 ± 0.045.
For SESKLSILMDMFPAISKSKLQVHLLENNNDLDLTIGLLL [H1S], the abundance fitness was 0.174 ± 0.06.
In the case of KESKLSILMDMFPAISKSKLQVHLLENNNDLDLTIGLLL [H1K], the abundance fitness is reported as 0.312 ± 0.062.
Variant WESKLSILMDMFPAISKSKLQVHLLENNNDLDLTIGLLL [H1W] has an abundance fitness of 0.05 ± 0.039.
MESKLSILMDMFPAISKSKLQVHLLENNNDLDLTIGLLL [H1M] gave an abundance fitness of 0.255 ± 0.09.
Work on RESKLSILMDMFPAISKSKLQVHLLENNNDLDLTIGLLL [H1R] yielded an abundance fitness of 0.284 ± 0.035.
With HESKLSILADMFPAISKSKLQVHLLENNNDLDLTIGLLL [M9A] the abundance fitness was -0.042 ± 0.042.
With HESKLSILYDMFPAISKSKLQVHLLENNNDLDLTIGLLL [M9Y] the abundance fitness was -0.057 ± 0.055.
With HESKLSILNDMFPAISKSKLQVHLLENNNDLDLTIGLLL [M9N] the abundance fitness was -0.402 ± 0.1.
Work on HESKLSILWDMFPAISKSKLQVHLLENNNDLDLTIGLLL [M9W] yielded an abundance fitness of -0.28 ± 0.059.
HESKLSILCDMFPAISKSKLQVHLLENNNDLDLTIGLLL [M9C] showed an abundance fitness of -0.159 ± 0.057.
In the case of HESKLSILRDMFPAISKSKLQVHLLENNNDLDLTIGLLL [M9R], the abundance fitness is reported as -0.049 ± 0.032.
Work on HESKLSILKDMFPAISKSKLQVHLLENNNDLDLTIGLLL [M9K] yielded an abundance fitness of -0.155 ± 0.083.
HESKLSILPDMFPAISKSKLQVHLLENNNDLDLTIGLLL [M9P] gave an abundance fitness of -1.14 ± 0.28.
Work on HESKLSILGDMFPAISKSKLQVHLLENNNDLDLTIGLLL [M9G] yielded an abundance fitness of -0.011 ± 0.033.
HESKLSILEDMFPAISKSKLQVHLLENNNDLDLTIGLLL [M9E] gave an abundance fitness of -0.03 ± 0.054.
In the case of HESKLSILTDMFPAISKSKLQVHLLENNNDLDLTIGLLL [M9T], the abundance fitness is reported as -0.054 ± 0.073.
For HESKLSILLDMFPAISKSKLQVHLLENNNDLDLTIGLLL [M9L], the abundance fitness was 0.107 ± 0.042.
In the case of HESKLSILVDMFPAISKSKLQVHLLENNNDLDLTIGLLL [M9V], the abundance fitness is reported as 0.014 ± 0.052.
HESKLSILDDMFPAISKSKLQVHLLENNNDLDLTIGLLL [M9D] showed an abundance fitness of -0.255 ± 0.068.
HESKLSILQDMFPAISKSKLQVHLLENNNDLDLTIGLLL [M9Q] gave an abundance fitness of -0.013 ± 0.07.
With HESKLSILSDMFPAISKSKLQVHLLENNNDLDLTIGLLL [M9S] the abundance fitness was -0.011 ± 0.042.
HESKLSILMFMFPAISKSKLQVHLLENNNDLDLTIGLLL [D10F] showed an abundance fitness of -0.463 ± 0.18.
With HESKLSILMEMFPAISKSKLQVHLLENNNDLDLTIGLLL [D10E] the abundance fitness was 0.052 ± 0.038.
For HESKLSILMCMFPAISKSKLQVHLLENNNDLDLTIGLLL [D10C], the abundance fitness was -0.123 ± 0.11.
In the case of HESKLSILMGMFPAISKSKLQVHLLENNNDLDLTIGLLL [D10G], the abundance fitness is reported as -0.099 ± 0.032.
For HQSKLSILMDMFPAISKSKLQVHLLENNNDLDLTIGLLL [E2Q], the abundance fitness was 0.113 ± 0.042.
In the case of HGSKLSILMDMFPAISKSKLQVHLLENNNDLDLTIGLLL [E2G], the abundance fitness is reported as -0.11 ± 0.039.
With HLSKLSILMDMFPAISKSKLQVHLLENNNDLDLTIGLLL [E2L] the abundance fitness was 0.109 ± 0.04.
HKSKLSILMDMFPAISKSKLQVHLLENNNDLDLTIGLLL [E2K] showed an abundance fitness of 0.153 ± 0.042.
With HDSKLSILMDMFPAISKSKLQVHLLENNNDLDLTIGLLL [E2D] the abundance fitness was -0.133 ± 0.2.
HPSKLSILMDMFPAISKSKLQVHLLENNNDLDLTIGLLL [E2P] gave an abundance fitness of -0.035 ± 0.066.
In the case of HMSKLSILMDMFPAISKSKLQVHLLENNNDLDLTIGLLL [E2M], the abundance fitness is reported as 0.19 ± 0.061.
Work on HWSKLSILMDMFPAISKSKLQVHLLENNNDLDLTIGLLL [E2W] yielded an abundance fitness of -0.349 ± 0.068.
For HRSKLSILMDMFPAISKSKLQVHLLENNNDLDLTIGLLL [E2R], the abundance fitness was 0.13 ± 0.045.
HCSKLSILMDMFPAISKSKLQVHLLENNNDLDLTIGLLL [E2C] gave an abundance fitness of 0.283 ± 0.11.
Variant HTSKLSILMDMFPAISKSKLQVHLLENNNDLDLTIGLLL [E2T] has an abundance fitness of 0.157 ± 0.054.
With HISKLSILMDMFPAISKSKLQVHLLENNNDLDLTIGLLL [E2I] the abundance fitness was 0.14 ± 0.051.
With HSSKLSILMDMFPAISKSKLQVHLLENNNDLDLTIGLLL [E2S] the abundance fitness was -0.319 ± 0.067.
HVSKLSILMDMFPAISKSKLQVHLLENNNDLDLTIGLLL [E2V] gave an abundance fitness of -0.195 ± 0.039.
HNSKLSILMDMFPAISKSKLQVHLLENNNDLDLTIGLLL [E2N] gave an abundance fitness of 0.167 ± 0.078.
In the case of HESKASILMDMFPAISKSKLQVHLLENNNDLDLTIGLLL [L5A], the abundance fitness is reported as -0.708 ± 0.068.
For HESKVSILMDMFPAISKSKLQVHLLENNNDLDLTIGLLL [L5V], the abundance fitness was -0.002 ± 0.037.
Variant HESKSSILMDMFPAISKSKLQVHLLENNNDLDLTIGLLL [L5S] has an abundance fitness of -0.856 ± 0.22.
In the case of HESKTSILMDMFPAISKSKLQVHLLENNNDLDLTIGLLL [L5T], the abundance fitness is reported as -0.338 ± 0.072.
In the case of HESKMSILMDMFPAISKSKLQVHLLENNNDLDLTIGLLL [L5M], the abundance fitness is reported as -0.031 ± 0.065.
HESKKSILMDMFPAISKSKLQVHLLENNNDLDLTIGLLL [L5K] gave an abundance fitness of -0.771 ± 0.27.
HESKHSILMDMFPAISKSKLQVHLLENNNDLDLTIGLLL [L5H] showed an abundance fitness of -1 ± 0.19.
